Data set [1] has as its target T1, ECFP-RNF4 (wild-type) (Rattus norvegicus, UniProt O88846 1-194).
T1 sequence: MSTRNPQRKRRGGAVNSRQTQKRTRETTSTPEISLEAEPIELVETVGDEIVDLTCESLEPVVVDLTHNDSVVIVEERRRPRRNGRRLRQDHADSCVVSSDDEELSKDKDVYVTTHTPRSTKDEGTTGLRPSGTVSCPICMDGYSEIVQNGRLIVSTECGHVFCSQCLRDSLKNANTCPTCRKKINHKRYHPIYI
The data set can be described thus: FRET or BRET. (In general: BRET reads energy transfer from a luciferase to a nearby fluorophore.)

Data set [2] deals with the molecule itself.
Data set [3] has as its target T1, ECFP-RNF4 (wild-type). The experiment in a line: FRET or BRET. The source holds these as a separate data set.
Another data set deals with T2, MBP-RNF4 (wild-type) (Rattus norvegicus, UniProt O88846 1-194).
T2 sequence: T1 sequence
The data set can be described thus: pull-down.

Numbering of substitutions follows the chain as printed. Names may count otherwise. Read-outs that look alike come from different tables or passages of the source.

B1: RNF4 Y193H (natural protein)
chain: T1 sequence with Y193H
With B1, the binding result with ECFP-RNF4 (wild-type) [1] is reported as “binds”.

B2: RNF4 L152A (natural protein)
chain: T1 sequence with L152A
For the molecule B2, in data set [2], the “stoichiometry N” value worked out at 2.

B3: YFP-RING domain of RNF4 (wild-type) (domain or fragment)
chain: VSCPICMDGYSEIVQNGRLIVSTECGHVFCSQCLRDSLKNANTCPTCRKKINHKRYHPIYI
Regarding B3, the binding result with ECFP-RNF4 (wild-type) [1] is recorded as “binds”.

B4: YFP-RING M140A R181A (domain or fragment)
chain: B3 chain with M7A, R48A
Consider B4, for which, in the data set with ECFP-RNF4 (wild-type) [3], the binding result is given as “binds”.

B5: UbcH5a (N77A C85S)~Ub oxyester (complex)
chain 1: not shown
chain 2: […]
For B5, the binding result in the data set with MBP-RNF4 (wild-type) was “binds”.

For orientation: stoichiometry N means a count of units in the complex or per binding partner.

Values taken from article PMC3326525 (Nature structural & molecular biology, 2011).
